# Experimental data: IntAct's records for PubMed 24076405
# B1: SCL-interrupting locus protein (Homo sapiens), Q15468 (parent)
# chain: MEPIYPFARPQMNTRFPSSRMVPFHFPPSKCALWNPTPTGDFIYLHLSYYRNPKLVVTEKTIRLAYRHAKQNKKNSSCFLLGSLTADEDEEGVTLTVDRFDPGREVPECLEITPTASLPGDFLIPCKVHTQELCSREMIVHSVDDFSSALKALQCHICSKDSLDCGKLLSLRVHITSRESLDSVEFDLHWAAVTLANNFKCTPVKPIPIIPTALARNLSSNLNISQVQGTYKYGYLTMDETRKLLLLLESDPKVYSLPLVGIWLSGITHIYSPQVWACCLRYIFNSSVQERVFSESGNFIIVLYSMTHKEPEFYECFPCDGKIPDFRFQLLTSKETLHLFKNVEPPDKNPIRCELSAESQNAETEFFSKASKNFSIKRSSQKLSSGKMPIHDHDSGVEDEDFSPRPIPSPHPVSQKISKIQPSVPELSLVLDGNFIESNPLPTPLEMVNNENPPLINHLEHLKPLQPQLYDEKHSPEVEAGEPSLRGIPNQLNQDKPALLRHCKVRQPPAYKKGNPHTRNSIKPSSHNGPSHDIFEKLQTVSAGNVQNEEYPIRPSTLNSRQSSLAPQSQPHDFVFSPHNSGRPMELQIPTPPLPSYCSTNVCRCCQHHSHIQYSPLNSWQGANTVGSIQDVQSEALQKHSLFHPSGCPALYCNAFCSSSSPIALRPQGDMGSCSPHSNIEPSPVARPPSHMDLCNPQPCTVCMHTPKTESDNGMMGLSPDAYRFLTEQDRQLRLLQAQIQRLLEAQSLMPCSPKTTAVEDTVQAGRQMELVSVEAQSSPGLHMRKGVSIAVSTGASLFWNAAGEDQEPDSQMKQDDTKISSEDMNFSVDINNEVTSLPGSASSLKAVDIPSFEESNIAVEEEFNQPLSVSNSSLVVRKEPDVPVFFPSGQLAESVSMCLQTGPTGGASNNSETSEEPKIEHVMQPLLHQPSDNQKIYQDLLGQVNHLLNSSSKETEQPSTKAVIISHECTRTQNVYHTKKKTHHSRLVDKDCVLNATLKQLRSLGVKIDSPTKVKKNAHNVDHASVLACISPEAVISGLNCMSFANVGMSGLSPNGVDLSMEANAIALKYLNENQLSQLSVTRSNQNNCDPFSLLHINTDRSTVGLSLISPNNMSFATKKYMKRYGLLQSSDNSEDEEEPPDNADSKSEYLLNQNLRSIPEQLGGQKEPSKNDHEIINCSNCESVGTNADTPVLRNITNEVLQTKAKQQLTEKPAFLVKNLKPSPAVNLRTGKAEFTQHPEKENEGDITIFPESLQPSETLKQMNSMNSVGTFLDVKRLRQLPKLF
# B2: Centrosomal P4.1-associated protein (Homo sapiens), Q9HC77 (parent)
# chain: MFLMPTSSELNSGQNFLTQWMTNPSRAGVILNRGFPILEADKEKRAAVDISTSFPIKGTHFSDSFSFINEEDSLLEEQKLESNNPYKPQSDKSETHTAFPCIKKGPQVAACHSAPGHQEENKNDFIPDLASEFKEGAYKDPLFKKLEQLKEVQQKKQEQLKRQQLEQLQRLMEEQEKLLTMVSGQCTLPGLSLLPDDQSQKHRSPGNTTTGERATCCFPSYVYPDPTQEETYPSNILSHEQSNFCRTAHGDFVLTSKRASPNLFSEAQYQEAPVEKNNLKEENRNHPTGESILCWEKVTEQIQEANDKNLQKHDDSSEVANIEERPIKAAIGERKQTFEDYLEEQIQLEEQELKQKQLKEAEGPLPIKAKPKQPFLKRGEGLARFTNAKSKFQKGKESKLVTNQSTSEDQPLFKMDRQQLQRKTALKNKELCADNPILKKDSKARTKSGSVTLSQKPKMLKCSNRKSLSPSGLKIQTGKKCDGQFRDQIKFENKVTSNNKENVTECPKPCDTGCTGWNKTQGKDRLPLSTGPASRLAAKSPIRETMKESESSLDVSLQKKLETWEREKEKENLELDEFLFLEQAADEISFSSNSSFVLKILERDQQICKGHRMSSTPVKAVPQKTNPADPISHCNRSEDLDHTAREKESECEVAPKQLHSLSSADELREQPCKIRKAVQKSTSENQTEWNARDDEGVPNSDSSTDSEEQLDVTIKPSTEDRERGISSREDSPQVCDDKGPFKDTRTQEDKRRDVDLDLSDKDYSSDESIMESIKHKVSEPSRSSSLSLSKMDFDDERTWTDLEENLCNHDVVLGNESTYGTPQTCYPNNEIGILDKTIKRKIAPVKRGEDLSKSRRSRSPPTSELMMKFFPSLKPKPKSDSHLGNELKLNISQDQPPGDNARSQVLREKIIELETEIEKFKAENASLAKLRIERESALEKLRKEIADFEQQKAKELARIEEFKKEEMRKLQKERKVFEKYTTAARTFPDKKEREEIQTLKQQIADLREDLKRKETKWSSTHSRLRSQIQMLVRENTDLREEIKVMERFRLDAWKRAEAIESSLEVEKKDKLANTSVRFQNSQISSGTQVEKYKKNYLPMQGNPPRRSKSAPPRDLGNLDKGQAASPREPLEPLNFPDPEYKEEEEDQDIQGEISHPDGKVEKVYKNGCRVILFPNGTRKEVSADGKTITVTFFNGDVKQVMPDQRVIYYYAAAQTTHTTYPEGLEVLHFSSGQIEKHYPDGRKEITFPDQTVKNLFPDGQEESIFPDGTIVRVQRDGNKLIEFNNGQRELHTAQFKRREYPDGTVKTVYANGHQETKYRSGRIRVKDKEGNVLMDTEL
# partner: B1 chain
# Variants of: B1
# Details: with cpap_human CPAP
row,effect of a mutation on the interaction,Variant
1,decreasing interaction strength,K419E
2,decreasing interaction strength,R405I

# Variants of: B2
# Details: with stil_human STIL
row,effect of a mutation on the interaction,Variant
1,decreasing interaction strength,F1229A
2,decreasing interaction strength,Y1210A
3,decreasing interaction strength,Y1208A
4,decreasing interaction strength,E1235K
5,decreasing interaction strength,E1235V
